Test system: engineered chimeric receptor SEQ ID NO: 33 and its mutants (human α7-nAChR ligand binding domain / human GlyRα1 ion pore domain) in Lenti-X 293T cells
Experiment: YFP fluorescence quenching anion reporter plate reader assay (percent quench, EC50)
Format: cell-based
Details: for YFP fluorescence quenching using CNL001 (percent quench): receptor named in row; for YFP fluorescence quenching using Facinicline, 30 nM fac: ligand Facinicline 30 nM; for YFP fluorescence quenching using Facinicline, 300 nM fac: ligand Facinicline 300 nM; for YFP fluorescence quenching using Facinicline, 30 uM fac: ligand Facinicline 30 uM; for YFP fluorescence quenching using TC-6987, 1 uM tc6987: ligand TC-6987 1 uM; for YFP fluorescence quenching using TC-6987, 10 uM tc6987: ligand TC-6987 10 uM; for YFP fluorescence quenching using TC-6987, 500 uM tc6987: ligand TC-6987 500 uM; for YFP fluorescence quenching using Varenicline, 3 nM var: ligand Varenicline 3 nM; for YFP fluorescence quenching using Varenicline, 30 nM var: ligand Varenicline 30 nM; for YFP fluorescence quenching using Varenicline, 300 nM var: ligand Varenicline 300 nM; for YFP fluorescence quenching using Varenicline, 500 nM var: ligand Varenicline 500 nM; for YFP fluorescence quenching using Varenicline, 1 uM var: ligand Varenicline 1 uM
Procedure, shortened: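 Percent quench compares mean YFP signal over the final 10 s with the 15 s baseline before ligand, added in iodide-containing extracellular solution (pH 7.2). Cells were LX293T carrying a YFP anion reporter, transiently transfected with the channel construct; plates were preincubated 30 min at 37 °C.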

[1] = 1 nM CNL001, first column so headed
[2] = 1 nM CNL001, second column so headed
[3] = 1 nM brd (TC-5619/Bradanicline)
[4] = 3 nM brd (TC-5619/Bradanicline)
[5] = 10 nM CNL001, first column so headed
[6] = 10 nM CNL001, second column so headed
[7] = 10 nM brd (TC-5619/Bradanicline)
[8] = 30 nM brd (TC-5619/Bradanicline)
[9] = 50 nM CNL001, first column so headed
[10] = 50 nM CNL001, second column so headed
[11] = 100 nM CNL001, first column so headed
[12] = 100 nM CNL001, second column so headed
[13] = 300 nM brd (TC-5619/Bradanicline)
[14] = 1 uM CNL001, first column so headed
[15] = 1 uM CNL001, second column so headed

B1: CODA1025: engineered receptor: R101F, L131G in SEQ ID NO: 33 (protein)
chain: MRCSPGGVWLALAASLLHVSLQGEFQRKLYKELVKNYNPLERPVANDSQPLTVYFSLSLLQIMDVDEKNQVLTTNIWLQMSWTDHYLQWNVSEYPGVKTVFFPDGQIWKPDILLYNSADERFDATFHTNVGVNSSGHCQYLPPGIFKSSCPMDLKNFPMDVQTCKLKFGSWSYGGWSLDLQMQEADISGYIPNGEWDLVGIPGKRSERFYECCKEPYPDVTFTVTMRRRMGYYLIQMYIPSLLIVILSWISFWINMDAAPARVGLGITTVLTMTTQSSGSRASLPKVSYVKAIDIWMAVCLLFVFSALLEYAAVNFVSRQHKELLRFRRKRRHHKSPMLNLFQEDEAGEGRFNFSAYGMGPACLQAKDGISVKGANNSNTTNPPPAPSKSPEEMRKLFIQRAKKIDKISRIGFPMAFLIFNMFYWIIYKIVRREDVHNQ
modifications: synthetic sequence of chimeric LGIC
YFP fluorescence quenching using CNL001 (percent quench) [1]: −18.527% | YFP fluorescence quenching using CNL001 (percent quench) [2]: −21.577% | YFP fluorescence quenching using TC-5619/Bradanicline (percent quench) [3]: −10.61% | YFP fluorescence quenching using TC-5619/Bradanicline (percent quench) [4]: 2.63% | YFP fluorescence quenching using CNL001 (percent quench) [5]: 14.063% | YFP fluorescence quenching using CNL001 (percent quench) [6]: 49.818% | YFP fluorescence quenching using TC-5619/Bradanicline (percent quench) [7]: 17.71% | YFP fluorescence quenching using TC-6683 (percent quench) (30 nM TC-6683): −1.645% | YFP fluorescence quenching using TC-5619/Bradanicline (percent quench) [8]: 68.48% | YFP fluorescence quenching using CNL001 (percent quench) [9]: 77.765% | YFP fluorescence quenching using CNL001 (percent quench) [10]: 79.23% | YFP fluorescence quenching using ABT-126 (percent quench) (50 nM abt (ABT-126)): −11.53% | YFP fluorescence quenching using CNL001 (percent quench) [11]: 80.544% | YFP fluorescence quenching using CNL001 (percent quench) [12]: 80.695% | YFP fluorescence quenching (percent quench) (100 nM CNL002): 12.48% | YFP fluorescence quenching using ABT-126 (percent quench) (100 nM abt (ABT-126)): −7.61% | YFP fluorescence quenching using AZD-0328 (percent quench) (100 nM azd0328): 6.26% | YFP fluorescence quenching using TC-6683 (percent quench) (300 nM TC-6683): 3.043% | YFP fluorescence quenching using ABT-126 (percent quench) (300 nM abt (ABT-126)): 6.55% | YFP fluorescence quenching using AZD-0328 (percent quench) (300 nM azd0328): 37.98% | YFP fluorescence quenching using TC-5619/Bradanicline (percent quench) [13]: 75.12% | YFP fluorescence quenching using CNL001 (percent quench) [14]: 81.191% | YFP fluorescence quenching using CNL001 (percent quench) [15]: 82.385% | YFP fluorescence quenching (percent quench) (1 uM CNL002): 46.04% | YFP fluorescence quenching using ABT-126 (percent quench) (1 uM abt (ABT-126)): 25.08% | YFP fluorescence quenching using TC-6683 (percent quench) (3 uM TC-6683): 0.082% | YFP fluorescence quenching (percent quench) (10 uM ach (acetylcholine)): 12.57% | YFP fluorescence quenching (percent quench) (30 uM CNL002): 39.82% | YFP fluorescence quenching using TC-6683 (percent quench) (30 uM TC-6683): 2.449% | YFP fluorescence quenching using AZD-0328 (percent quench) (30 uM azd0328): 79.31% | YFP fluorescence quenching (percent quench) (50 uM ach (acetylcholine)): −3.46% | YFP fluorescence quenching using TC-6683 (percent quench) (100 uM TC-6683): 10.437% | YFP fluorescence quenching (percent quench) (100 uM ach (acetylcholine)): 12.65% | YFP fluorescence quenching (percent quench) (300 uM ach (acetylcholine)): −6.96% | YFP fluorescence quenching (percent quench) (500 uM ach (acetylcholine)): −6.77% | YFP fluorescence quenching (percent quench) (1 mM ach (acetylcholine)): 19.42% | YFP fluorescence quenching (percent quench) (3 mM ach (acetylcholine)): 65.06% | YFP fluorescence quenching using Facinicline, 30 nM fac: −8.99 | YFP fluorescence quenching using Facinicline, 300 nM fac: 10.21 | YFP fluorescence quenching using Facinicline, 30 uM fac: 78.24 | YFP fluorescence quenching using TC-6987, 1 uM tc6987: −13.32 | YFP fluorescence quenching using TC-6987, 10 uM tc6987: 43.71 | YFP fluorescence quenching using TC-6987, 500 uM tc6987: 53.98 | YFP fluorescence quenching using Varenicline, 3 nM var (first column): 48.074 | YFP fluorescence quenching using Varenicline, 3 nM var (second column): 60.978 | YFP fluorescence quenching using Varenicline, 30 nM var (first column): 70.023 | YFP fluorescence quenching using Varenicline, 30 nM var (second column): 69.433 | YFP fluorescence quenching using Varenicline, 300 nM var (first column): 78.989 | YFP fluorescence quenching using Varenicline, 300 nM var (second column): 79.21 | YFP fluorescence quenching using Varenicline, 500 nM var (first column): 79.212 | YFP fluorescence quenching using Varenicline, 500 nM var (second column): 79.771 | YFP fluorescence quenching using Varenicline, 1 uM var (first column): 79.538 | YFP fluorescence quenching using Varenicline, 1 uM var (second column): 80.577

B2: CODA1027: engineered receptor: R101F, L131D in SEQ ID NO: 33 (protein)
chain: MRCSPGGVWLALAASLLHVSLQGEFQRKLYKELVKNYNPLERPVANDSQPLTVYFSLSLLQIMDVDEKNQVLTTNIWLQMSWTDHYLQWNVSEYPGVKTVFFPDGQIWKPDILLYNSADERFDATFHTNVDVNSSGHCQYLPPGIFKSSCPMDLKNFPMDVQTCKLKFGSWSYGGWSLDLQMQEADISGYIPNGEWDLVGIPGKRSERFYECCKEPYPDVTFTVTMRRRMGYYLIQMYIPSLLIVILSWISFWINMDAAPARVGLGITTVLTMTTQSSGSRASLPKVSYVKAIDIWMAVCLLFVFSALLEYAAVNFVSRQHKELLRFRRKRRHHKSPMLNLFQEDEAGEGRFNFSAYGMGPACLQAKDGISVKGANNSNTTNPPPAPSKSPEEMRKLFIQRAKKIDKISRIGFPMAFLIFNMFYWIIYKIVRREDVHNQ
modifications: synthetic sequence of chimeric LGIC
YFP fluorescence quenching using CNL001 (percent quench) [1]: 24.049% | YFP fluorescence quenching using CNL001 (percent quench) [2]: 36.755% | YFP fluorescence quenching using TC-5619/Bradanicline (percent quench) [3]: −10.07% | YFP fluorescence quenching using TC-5619/Bradanicline (percent quench) [4]: −0.8% | YFP fluorescence quenching using CNL001 (percent quench) [5]: 52.927% | YFP fluorescence quenching using CNL001 (percent quench) [6]: 61.449% | YFP fluorescence quenching using TC-5619/Bradanicline (percent quench) [7]: 1.74% | YFP fluorescence quenching using TC-6683 (percent quench) (30 nM TC-6683): 1.189% | YFP fluorescence quenching using TC-5619/Bradanicline (percent quench) [8]: 53.95% | YFP fluorescence quenching using CNL001 (percent quench) [9]: 67.308% | YFP fluorescence quenching using CNL001 (percent quench) [10]: 68.77% | YFP fluorescence quenching using ABT-126 (percent quench) (50 nM abt (ABT-126)): −11.89% | YFP fluorescence quenching using CNL001 (percent quench) [11]: 69.049% | YFP fluorescence quenching using CNL001 (percent quench) [12]: 71.613% | YFP fluorescence quenching (percent quench) (100 nM CNL002): 7.75% | YFP fluorescence quenching using ABT-126 (percent quench) (100 nM abt (ABT-126)): −16.07% | YFP fluorescence quenching using AZD-0328 (percent quench) (100 nM azd0328): −4.76% | YFP fluorescence quenching using TC-6683 (percent quench) (300 nM TC-6683): 0.939% | YFP fluorescence quenching using ABT-126 (percent quench) (300 nM abt (ABT-126)): −11.21% | YFP fluorescence quenching using AZD-0328 (percent quench) (300 nM azd0328): −7.52% | YFP fluorescence quenching using TC-5619/Bradanicline (percent quench) [13]: 76.74% | YFP fluorescence quenching using CNL001 (percent quench) [14]: 71.811% | YFP fluorescence quenching using CNL001 (percent quench) [15]: 69.907% | YFP fluorescence quenching (percent quench) (1 uM CNL002): 61.97% | YFP fluorescence quenching using ABT-126 (percent quench) (1 uM abt (ABT-126)): −9.38% | YFP fluorescence quenching using TC-6683 (percent quench) (3 uM TC-6683): 1.327% | YFP fluorescence quenching (percent quench) (10 uM ach (acetylcholine)): −1.62% | YFP fluorescence quenching (percent quench) (30 uM CNL002): 65.77% | YFP fluorescence quenching using TC-6683 (percent quench) (30 uM TC-6683): −0.845% | YFP fluorescence quenching using AZD-0328 (percent quench) (30 uM azd0328): 74.9% | YFP fluorescence quenching (percent quench) (50 uM ach (acetylcholine)): −1.6% | YFP fluorescence quenching using TC-6683 (percent quench) (100 uM TC-6683): −3.136% | YFP fluorescence quenching (percent quench) (100 uM ach (acetylcholine)): −2.62% | YFP fluorescence quenching (percent quench) (300 uM ach (acetylcholine)): −6.12% | YFP fluorescence quenching (percent quench) (500 uM ach (acetylcholine)): −7.71% | YFP fluorescence quenching (percent quench) (1 mM ach (acetylcholine)): −5.73% | YFP fluorescence quenching (percent quench) (3 mM ach (acetylcholine)): 33.69% | YFP fluorescence quenching using Facinicline, 30 nM fac: −10.05 | YFP fluorescence quenching using Facinicline, 300 nM fac: −12.54 | YFP fluorescence quenching using Facinicline, 30 uM fac: 70.96 | YFP fluorescence quenching using TC-6987, 1 uM tc6987: 0.88 | YFP fluorescence quenching using TC-6987, 10 uM tc6987: 56.27 | YFP fluorescence quenching using TC-6987, 500 uM tc6987: 71.3 | YFP fluorescence quenching using Varenicline, 3 nM var (first column): −3.367 | YFP fluorescence quenching using Varenicline, 3 nM var (second column): −0.431 | YFP fluorescence quenching using Varenicline, 30 nM var (first column): −0.761 | YFP fluorescence quenching using Varenicline, 30 nM var (second column): 2.989 | YFP fluorescence quenching using Varenicline, 300 nM var (first column): 2.966 | YFP fluorescence quenching using Varenicline, 300 nM var (second column): 10.211 | YFP fluorescence quenching using Varenicline, 500 nM var (first column): 15.278 | YFP fluorescence quenching using Varenicline, 500 nM var (second column): 20.84 | YFP fluorescence quenching using Varenicline, 1 uM var (first column): 37.104 | YFP fluorescence quenching using Varenicline, 1 uM var (second column): 42.439
